From patent US20170355744A1 (published 2017)
Where a chain is given by its changes, count along the chain named. Values joined by “and” are separate entries in the source; they are usually repeats but may differ in a detail not shown here. Identical values can stand only once.

B1: Naglu-Rigid-IGF-II (SEQ ID NO: 566) (enzyme)
chain: DEAREAAAVRALVARLLGPGPAADFSVSVERALAAKPGLDTYSLGGGGAARVRVRGSTGVAAAAGLHRYLRDFCGCHVAWSGSQLRLPRPLPAVPGELTEATPNRYRYYQNVCTQSYSFVWWDWARWEREIDWMALNGINLALAWSGQEAIWQRVYLALGLTQAEINEFFTGPAFLAWGRMGNLHTWDGPLPPSWHIKQLYLQHRVLDQMRSFGMTPVLPAFAGHVPEAVTRVFPQVNVTKMGSWGHFNCSYSCSFLLAPEDPIFPIIGSLFLRELIKEFGTDHIYGADTFNEMQPPSSEPSYLAAATTAVYEAMTAVDTEAVWLLQGWLFQHQPQFWGPAQIRAVLGAVPRGRLLVLDLFAESQPVYTRTASFQGQPFIWCMLHNFGGNHGLFGALEAVNGGPEAARLFPNSTMVGTGMAPEGISQNEVVYSLMAELGWRKDPVPDLAAWVTSFAARRYGVSHPDAGAAWRLLLRSVYNCSGEACRGHNRSPLVRRPSLQMNTSIWYNRSDVFEAWRLLLTSAPSLATSPAFRYDLLDLTRQAVQELVSLYYEEARSAYLSKELASLLRAGGVLAYELLPALDEVLASDSRFLLGSWLEQARAAAVSEAEADFYEQNSRYQLTLWGPEGNILDYANKQLAGLVANYYTPRWRLFLEALVDSVAQGIPFQQHQFDKNVFQLEQAFVLSKQRYPSQPRGDTVDLAKKIFLKYYPRWVAGSWGAPGGGSPAPAPTPAPAPTPAPAGGGPSGAPLCGGELVDTLQFVCGDRGFYFSRPASRVSARSRGIVEECCFRSCDLALLETYCATPAKSE
notes: also called Naglu fusion protein
B2: Naglu-(GGGGS)4GGGPS-IGF-II (SEQ ID NO: 568) (enzyme)
chain: DEAREAAAVRALVARLLGPGPAADFSVSVERALAAKPGLDTYSLGGGGAARVRVRGSTGVAAAAGLHRYLRDFCGCHVAWSGSQLRLPRPLPAVPGELTEATPNRYRYYQNVCTQSYSFVWWDWARWEREIDWMALNGINLALAWSGQEAIWQRVYLALGLTQAEINEFFTGPAFLAWGRMGNLHTWDGPLPPSWHIKQLYLQHRVLDQMRSFGMTPVLPAFAGHVPEAVTRVFPQVNVTKMGSWGHFNCSYSCSFLLAPEDPIFPIIGSLFLRELIKEFGTDHIYGADTFNEMQPPSSEPSYLAAATTAVYEAMTAVDTEAVWLLQGWLFQHQPQFWGPAQIRAVLGAVPRGRLLVLDLFAESQPVYTRTASFQGQPFIWCMLHNFGGNHGLFGALEAVNGGPEAARLFPNSTMVGTGMAPEGISQNEVVYSLMAELGWRKDPVPDLAAWVTSFAARRYGVSHPDAGAAWRLLLRSVYNCSGEACRGHNRSPLVRRPSLQMNTSIWYNRSDVFEAWRLLLTSAPSLATSPAFRYDLLDLTRQAVQELVSLYYEEARSAYLSKELASLLRAGGVLAYELLPALDEVLASDSRFLLGSWLEQARAAAVSEAEADFYEQNSRYQLTLWGPEGNILDYANKQLAGLVANYYTPRWRLFLEALVDSVAQGIPFQQHQFDKNVFQLEQAFVLSKQRYPSQPRGDTVDLAKKIFLKYYPRWVAGSWGGGGSGGGGSGGGGSGGGGSGGGPSLCGGELVDTLQFVCGDRGFYFSRPASRVSARSRGIVEECCFRSCDLALLETYCATPAKSE
notes: The construct encodes full-length Naglu 1-743 with its signal peptide; also called Naglu fusion protein; GILT-tagged Naglu-IGF-II fusion protein
B3: Naglu-(GGGGA)4GGGPS-IGF-II (SEQ ID NO: 569) (enzyme)
chain: B2 chain with S725A, S730A, S735A, S740A
notes: as for B1
B4: Naglu-Helical-IGF-II (SEQ ID NO: 567) (enzyme)
chain: DEAREAAAVRALVARLLGPGPAADFSVSVERALAAKPGLDTYSLGGGGAARVRVRGSTGVAAAAGLHRYLRDFCGCHVAWSGSQLRLPRPLPAVPGELTEATPNRYRYYQNVCTQSYSFVWWDWARWEREIDWMALNGINLALAWSGQEAIWQRVYLALGLTQAEINEFFTGPAFLAWGRMGNLHTWDGPLPPSWHIKQLYLQHRVLDQMRSFGMTPVLPAFAGHVPEAVTRVFPQVNVTKMGSWGHFNCSYSCSFLLAPEDPIFPIIGSLFLRELIKEFGTDHIYGADTFNEMQPPSSEPSYLAAATTAVYEAMTAVDTEAVWLLQGWLFQHQPQFWGPAQIRAVLGAVPRGRLLVLDLFAESQPVYTRTASFQGQPFIWCMLHNFGGNHGLFGALEAVNGGPEAARLFPNSTMVGTGMAPEGISQNEVVYSLMAELGWRKDPVPDLAAWVTSFAARRYGVSHPDAGAAWRLLLRSVYNCSGEACRGHNRSPLVRRPSLQMNTSIWYNRSDVFEAWRLLLTSAPSLATSPAFRYDLLDLTRQAVQELVSLYYEEARSAYLSKELASLLRAGGVLAYELLPALDEVLASDSRFLLGSWLEQARAAAVSEAEADFYEQNSRYQLTLWGPEGNILDYANKQLAGLVANYYTPRWRLFLEALVDSVAQGIPFQQHQFDKNVFQLEQAFVLSKQRYPSQPRGDTVDLAKKIFLKYYPRWVAGSWGAPGGGSPAEAAAKEAAAKEAAAKEAAAKEAAAKAPSGGGGAPLCGGELVDTLQFVCGDRGFYFSRPASRVSARSRGIVEECCFRSCDLALLETYCATPAKSE
notes: as for B1
B5: Naglu-XTEN-IGF-II (SEQ ID NO: 565) (enzyme)
chain: DEAREAAAVRALVARLLGPGPAADFSVSVERALAAKPGLDTYSLGGGGAARVRVRGSTGVAAAAGLHRYLRDFCGCHVAWSGSQLRLPRPLPAVPGELTEATPNRYRYYQNVCTQSYSFVWWDWARWEREIDWMALNGINLALAWSGQEAIWQRVYLALGLTQAEINEFFTGPAFLAWGRMGNLHTWDGPLPPSWHIKQLYLQHRVLDQMRSFGMTPVLPAFAGHVPEAVTRVFPQVNVTKMGSWGHFNCSYSCSFLLAPEDPIFPIIGSLFLRELIKEFGTDHIYGADTFNEMQPPSSEPSYLAAATTAVYEAMTAVDTEAVWLLQGWLFQHQPQFWGPAQIRAVLGAVPRGRLLVLDLFAESQPVYTRTASFQGQPFIWCMLHNFGGNHGLFGALEAVNGGPEAARLFPNSTMVGTGMAPEGISQNEVVYSLMAELGWRKDPVPDLAAWVTSFAARRYGVSHPDAGAAWRLLLRSVYNCSGEACRGHNRSPLVRRPSLQMNTSIWYNRSDVFEAWRLLLTSAPSLATSPAFRYDLLDLTRQAVQELVSLYYEEARSAYLSKELASLLRAGGVLAYELLPALDEVLASDSRFLLGSWLEQARAAAVSEAEADFYEQNSRYQLTLWGPEGNILDYANKQLAGLVANYYTPRWRLFLEALVDSVAQGIPFQQHQFDKNVFQLEQAFVLSKQRYPSQPRGDTVDLAKKIFLKYYPRWVAGSWGAPGGSPAGSPTSTEEGTSESATPESGPGTSTEPSEGSAPGSPAGSPTSTGPSGAPLCGGELVDTLQFVCGDRGFYFSRPASRVSARSRGIVEECCFRSCDLALLETYCATPAKSE
notes: as for B1

biological target: T1, CI-MPR receptor on human MPS IIIB fibroblasts (human), P11717; experiment: cell-based or functional assay
T1 sequence (P11717 41-2491): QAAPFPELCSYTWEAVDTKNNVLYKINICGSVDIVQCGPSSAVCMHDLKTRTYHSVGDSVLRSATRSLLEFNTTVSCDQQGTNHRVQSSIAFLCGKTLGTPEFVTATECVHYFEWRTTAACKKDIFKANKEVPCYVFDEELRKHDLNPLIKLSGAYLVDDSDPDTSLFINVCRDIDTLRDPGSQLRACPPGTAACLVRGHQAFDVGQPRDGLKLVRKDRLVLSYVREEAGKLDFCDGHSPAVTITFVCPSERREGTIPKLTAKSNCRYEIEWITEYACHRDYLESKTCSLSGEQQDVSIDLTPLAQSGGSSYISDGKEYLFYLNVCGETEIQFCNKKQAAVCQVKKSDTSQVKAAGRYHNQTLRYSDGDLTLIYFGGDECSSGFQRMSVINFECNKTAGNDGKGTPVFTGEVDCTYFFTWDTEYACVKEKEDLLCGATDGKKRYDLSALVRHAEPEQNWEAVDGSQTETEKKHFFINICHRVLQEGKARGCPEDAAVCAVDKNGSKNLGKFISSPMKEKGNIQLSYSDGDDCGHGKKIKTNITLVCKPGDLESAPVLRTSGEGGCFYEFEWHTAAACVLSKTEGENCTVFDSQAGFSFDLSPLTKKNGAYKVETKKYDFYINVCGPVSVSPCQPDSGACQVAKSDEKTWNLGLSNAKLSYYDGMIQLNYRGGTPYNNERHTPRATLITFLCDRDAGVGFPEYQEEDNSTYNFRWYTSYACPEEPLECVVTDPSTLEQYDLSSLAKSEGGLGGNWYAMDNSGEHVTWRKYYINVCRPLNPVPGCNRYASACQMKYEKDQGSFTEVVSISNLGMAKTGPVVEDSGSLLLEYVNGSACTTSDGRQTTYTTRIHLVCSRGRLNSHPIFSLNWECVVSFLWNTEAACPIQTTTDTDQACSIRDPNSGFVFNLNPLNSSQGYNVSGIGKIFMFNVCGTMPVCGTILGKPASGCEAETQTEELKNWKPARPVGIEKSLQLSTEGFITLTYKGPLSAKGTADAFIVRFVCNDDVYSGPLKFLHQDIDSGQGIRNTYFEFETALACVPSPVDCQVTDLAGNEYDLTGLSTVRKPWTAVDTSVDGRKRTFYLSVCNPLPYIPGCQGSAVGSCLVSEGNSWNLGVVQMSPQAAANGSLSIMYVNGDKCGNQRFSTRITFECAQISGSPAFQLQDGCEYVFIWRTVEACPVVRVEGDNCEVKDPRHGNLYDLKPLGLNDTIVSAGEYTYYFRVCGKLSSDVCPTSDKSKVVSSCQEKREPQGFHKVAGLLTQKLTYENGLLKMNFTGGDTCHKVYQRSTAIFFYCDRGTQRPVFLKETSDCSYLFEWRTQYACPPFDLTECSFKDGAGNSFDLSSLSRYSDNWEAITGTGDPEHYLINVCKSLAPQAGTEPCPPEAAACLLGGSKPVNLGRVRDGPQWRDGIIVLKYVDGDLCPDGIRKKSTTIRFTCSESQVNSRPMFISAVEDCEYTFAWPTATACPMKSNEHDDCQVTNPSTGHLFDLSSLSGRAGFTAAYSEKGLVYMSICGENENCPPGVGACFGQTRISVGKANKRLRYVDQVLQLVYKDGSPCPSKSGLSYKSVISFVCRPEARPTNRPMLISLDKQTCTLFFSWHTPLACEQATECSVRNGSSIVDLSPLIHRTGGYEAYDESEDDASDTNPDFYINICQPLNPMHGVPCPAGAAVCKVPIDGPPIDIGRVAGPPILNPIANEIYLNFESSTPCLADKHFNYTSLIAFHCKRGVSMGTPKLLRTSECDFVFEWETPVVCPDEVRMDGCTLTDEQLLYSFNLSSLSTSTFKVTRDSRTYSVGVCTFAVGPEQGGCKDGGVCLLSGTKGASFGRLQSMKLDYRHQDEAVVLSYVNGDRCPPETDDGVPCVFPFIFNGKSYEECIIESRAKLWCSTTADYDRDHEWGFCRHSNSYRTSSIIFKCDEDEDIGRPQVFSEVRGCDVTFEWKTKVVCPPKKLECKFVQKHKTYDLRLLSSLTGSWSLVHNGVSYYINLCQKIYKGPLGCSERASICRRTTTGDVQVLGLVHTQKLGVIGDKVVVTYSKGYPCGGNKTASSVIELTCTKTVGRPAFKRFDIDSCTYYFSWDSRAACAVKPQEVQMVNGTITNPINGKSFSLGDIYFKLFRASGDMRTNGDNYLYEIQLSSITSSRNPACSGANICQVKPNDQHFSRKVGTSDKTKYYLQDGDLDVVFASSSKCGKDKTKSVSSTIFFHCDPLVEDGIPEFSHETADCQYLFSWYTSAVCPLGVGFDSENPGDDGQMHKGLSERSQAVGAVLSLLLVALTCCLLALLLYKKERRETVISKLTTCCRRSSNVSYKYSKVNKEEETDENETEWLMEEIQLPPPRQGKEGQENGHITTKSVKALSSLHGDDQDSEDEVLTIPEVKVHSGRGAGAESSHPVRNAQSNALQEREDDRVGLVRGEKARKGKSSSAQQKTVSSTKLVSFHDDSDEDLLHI

Row | Kuptake [nM] | Binder
1 | 2.4 | B1
2 | 5.4 | B2
3 | 6.3 | B3
4 | 2.3 | B4
5 | 3.7 | B5

biological target: T1, CI-MPR receptor on human MPS IIIB …; experiment: cell-based or functional assay; remark: another data set of the same source

Row | Kuptake [nM] | Binder
6 | 7 to 9 | B2

biological target: T2, fragment of the IGFIIR involved with IGF-II binding (domains 10-13, named protein 1288) (UniProt P11717 1367-1989); experiment: IGF2R competitive binding assay, displacement of 8 nM biotinylated IGF-II from plate-coated IGFIIR domains 10-13
T2 construct: domain: domains 10-13; Coated on the plate at 0.5 ug/well; also called IGF2R
Description: To measure the ability of the Naglu fusion protein constructs to bind to the IGF-II receptor a competitive binding assay is carried out. A fragment of the IGFIIR involved with IGF-II binding (domains 10-13, named protein 1288) is coated onto 96-well plates. Biotinylated IGF-II is incubated with the receptor in the presence of increasing amounts of competitors: either control IGF-II (non-biotinylated), or fusion protein sample (containing an IGF-II-derived GILT epitope tag). Receptor-bound biotinylated IGF-II is detected with streptavidin conjugated to horseradish peroxidase (HRP) and a chemiluminescent HRP substrate. The ability of the fusion protein to inhibit binding of biotinylated IGF-II to the IGFIIR is calculated from inhibition curves and reported as an IC₅₀ value (concentration required to achieve 50% binding inhibition).
For the assay, IGFIIR is coated in a white Reacti-bind plate (Pierce, Cat#437111) at 0.5 μg/well in a volume of 100 μl (69.6 nM/per well) in coating buffer. The plate is sealed and incubated overnight at room temperature. The plate is then washed 3× with wash buffer, blocked with blocking buffer and then washed again 3× with wash buffer (300 μl/well).

T2 sequence (P11717 1367-1989 limits assumed): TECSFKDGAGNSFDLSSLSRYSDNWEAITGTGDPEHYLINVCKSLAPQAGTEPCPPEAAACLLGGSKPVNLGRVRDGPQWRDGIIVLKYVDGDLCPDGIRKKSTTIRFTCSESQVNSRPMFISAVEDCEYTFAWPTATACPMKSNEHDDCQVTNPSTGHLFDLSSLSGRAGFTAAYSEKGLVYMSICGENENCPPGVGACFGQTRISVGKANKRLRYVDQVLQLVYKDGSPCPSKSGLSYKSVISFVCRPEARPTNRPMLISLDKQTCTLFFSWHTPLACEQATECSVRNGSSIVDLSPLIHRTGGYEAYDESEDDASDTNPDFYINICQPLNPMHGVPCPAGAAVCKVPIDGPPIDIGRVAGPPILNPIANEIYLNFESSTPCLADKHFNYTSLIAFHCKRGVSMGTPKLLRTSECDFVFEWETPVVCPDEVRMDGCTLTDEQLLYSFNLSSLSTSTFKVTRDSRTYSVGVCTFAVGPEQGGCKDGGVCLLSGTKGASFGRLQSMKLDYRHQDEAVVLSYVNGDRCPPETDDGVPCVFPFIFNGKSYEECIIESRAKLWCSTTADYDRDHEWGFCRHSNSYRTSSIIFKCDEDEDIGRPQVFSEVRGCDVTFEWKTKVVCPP

Row | IC50 | Binder
7 | 0.23 nM | B1
8 | 0.27 nM and 0.23 nM | B2
9 | 0.36 nM | B3
10 | 0.25 nM | B4
11 | 0.24 nM | B5
